Measured values as given in the DeepSol protein solubility set.

Test: soluble on expression in E. coli; label from the status in PepcDB or PDB records

Sequence | soluble on expression in E. coli
MSSSHSRAGQSAAGAAPGGGVDTRDAEMPATEKDLAEDAPWKKIQQNTFTRWCNEHLKCVSKRIANLQTDLSDGLRLIALLEVLSQKKMHRKHNQRPTFRQMQLENVSVALEFLDRESIKLVSIDSKAIVDGNLKLILGLIWTLILHYSISMPMWDEEEDEEAKKQTPKQRLLGWIQNKLPQLPITNFSRDWQSGRALGALVDSCAPGLCPDWDSWDASKPVTNAREAMQQADDWLGIPQVITPEEIVDPNVDEHSVMTYLSQFPKAKLKPGAPLRPK | soluble
SATLKVSDSVPAPSDDAEQLRTAFEGWGTNEDLIISILAHRSAEQRKVIRQAYHETYGEDLLKTLDKELSNDFERAILLWTLEPGERDALLANEATKRWTSSNQVLMEVACTRTSTQLLHARQAYHARYKKSLEEDVAHHTTGDFRKLLVSLVTSYRYEGDEVNMTLAKQEAKLVHEKIKDKHYNDEDVIRILSTRSKAQINATFNRYQDDHGEEILKSLEEGDDDDKFLALLRSTIQCLTRPELYFVDVLRSAINKTGTDEGALTRIVTTRAEIDLKVIGEEYQRRNSIPLEKAITKDTRGDYEKMLVALLGEDDA | soluble
MNRTAMRASQKDFENSMNQVKLLKKDPGNEVKLKLYALYKQATEGPCNMPKPGVFDLINKAKWDAWNALGSLPKEAARQNYVDLVSSLSPSLESSSQVEPGTDRKSTGFETLVVTSEDGITKIMFNRPKKKNAINTEMYHEIMRALKAASKDDSIITVLTGNGDYYSSGNDLTNFTDIPPGGVEEKAKNNAVLLREFVGCFIDFPKPLIAVVNGPAVGISVTLLGLFDAVYASDRATFHTPFSHLGQSPEGCSSYTFPKIMSPAKATEMLIFGKKLTAGEACAQGLVTEVFPDSTFQKEVWTRLKAFAKLPPNALRISKEVIRKREREKLHAVNAEECNVLQGRWLSDECTNAVVNFLSRKSKL | not soluble
MGHHHHHHSHMDNAEAQFTTALRLTNHQELWAFIVTNLASVYIREGNRHQEVLYSLLERINPDHSFPVSSHCLRAAAFYVRGLFSFFQGRYNEAKRFLRETLKMSNAEDLNRLTACSLVLLGHIFYVLGNHRESNNMVVPAMQLASKIPDMSVQLWSSALLRDLNKACGNAMDAHEAAQMHQNFSQQLLQDHIEACSLPEHNLITWTDGPPPVQFQAQNGPNTSLASLL | not soluble
SQQVDKIKASYPLFLDQDYKDMLAKKRDGFEEKYPQDKIDEVFQWTTTKEYQELNFQREALTVNPAKACQPLGAVLCALGFEKTMPYVHGSQGCVAYFRSYFNRHFREPVSCVSDSMTEDAAVFGGQQNMKDGLQNCKATYKPDMIAVSTTCMAEVIGDDLNAFINNSKKEGFIPDEFPVPFAHTPSFVGSHVTGWDNMFEGIARYFTLKSMDDKVVGSNKKINIVPGFETYLGNFRVIKRMLSEMGVGYSLLSDPEEVLDTPADGQFRMYAGGTTQEEMKDAPNALNTVLLQPWHLEKTKKFVEGTWKHEVPKLNIPMGLDWTDEFLMKVSEISGQPIPASLTKERGRLVDMMTDSHTWLHGKRFALWGDPDFVMGLVKFLLELGCEPVHILCHNGNKRWKKAVDAILAASPYGKNATVYIGKDLWHLRSLVFTDKPDFMIGNSYGKFIQRDTLHKGKEFEVPLIRIGFPIFDRHHLHRSTTLGYEGAMQILTTLVNSILERLDEETRGMQATDYNHDLVR | soluble
MGSDKIHHHHHHMLGVCYYPEHWGTEKVEEDFRRMKELGIEYVRIGEFAWSRIESERGKFNWDWLDKTLELAEKMGLKIVLGTPTATPPKWLIDEHPEILPVDKDGRVKNFGSRRHYCFSSPVYREEVKRIVTIIVKRYGKHPAVAGWQTDNEYGCHDTVRCYCPRCKKAFQKWLERKYEGDIKKLNEAWGTVFWSQEYRSFDEIELPNLTPADPNPSHLLDYYRLASDQVVEFNKLQVEIIREYSPGRFITHNFMSGFTDFDHYKLSKDLDFATWDNYPLGHTLVFLRMKGETKNPFDRVGHPDIISFSHDLYRGVGRGRFWVMEQQAGPVNWAPYNLWPAKGAVRLWTWQAFAHGAEVVSYFRWRQAPFAQEQMHSGLLAPDSAPYPGYHEVKQVFEELKNIDINEPVESEVALVFDYETAWVFSIQPHGEGVNYIDLVFRFYSALRRLGLNVDIVPPGSSLDGYKMIVVPSLAIVKEEVLDTFKKYDGLLVLGPRSGSKTETFQIPPEMPPGLLKEIIPVEVRQVESLGDNVETLVWNGKEYPVSIWREDVDPTITEVIARFKDGFGAIFRKENVFYLAFWPNGDFLVDFFEALSKESGIETKRMPEGVRIQRRGEYVFSFNFTSEEVDLEIPTKVQIVLGDQKIPPYGLLIWKENER | not soluble
MSLATKLRRVRKSPPEGWDLIEPTLEQFEAKMREAETEPHEGKRKTEINWPIFRIHHQRSRYVYDMYYKKAEISRELYEFCLTAKFADAALIAKWKKQGYENLCCVKCVNTRDSNFGTACICRVPKSKLDAERVIECVHCGCHGCSG | not soluble
MGSDKIHHHHHHLAKAELTQIPVSQMVIGLTVKLPLSWTNHPFFRSKVKLEQQVQIEMIKGLDVSFVYVIEGHDLLPHVSEPVEIEQPEEVVEQEIDYRPLAKKSMRISQQRFVKSVNDSRTVFGKIVSDPEGAYREAATLVEDLVDHLYESETPQLTIVGSGEIDVSVTQHGISVAVLSMMIAHSLVLSKKDVRDIALGSLFHDIGKLKVPDAIRRKKRGDLSDHEINFLKMHPNFGYDMLNRTGLFPEAMLDIVLHHHEFIDGSGFPNQLTEAKILLTTQVVSLANDYETLLNLHRTPQIALGILFKTHSGKHADNLIAVLVKILGIYPPGTIVRLTDDSIAKVMMTTADVKQPHVWSCNLSGGEPSFRFLINEDVQVQEVMKLDELTDGAVKTLQANNPISFYFNNFDH | not soluble
MGSDKIHHHHHHMSGRTMSSIYILWDASHIWGLLAWRTAQSLDLPYRLVRGEEIAQGLLSGKPPALLLVPGGNARMKSVALGAAGMQAIRDYVRGGGAYVGFCGGAGLGLSGSEGLGLCPWGRARFTDRMQHFVSGHVHARVARGHDLVPADLCTDACAEPPVPIWWPGRFAPEKTGDVEVLATYTTPCDDFWVADLPLDTLPPGTFSEWESLYDIRLRPTFLEDQPCILSGRYGKGRYVLSYTHLETPDSPTANRWLLHIIRTLGGIEPPLQRVPAWDLENQQAAWLDPDLLHARGIFDDIVTIGRNHCLFFKRNAWLIGWRAGIPGANLNNLYAAVVTAVSNPPTAECTAYWQEQRQPFMRKLALFHEGVKGYLLAERLAMTLSKTFPETVSRESLRNQRAALFGPPMDSGGLYQELLDTLDELLYRQLPHGL | not soluble
MSTKNRTRRTTTRNIRFPNQMIEQINIALDQKGSGNFSAWVIEACRRRLTSEKRAYTSIKSDEE | soluble
MASTDTYNPTRDDFAAMLDESFAGGNLQESSVIKGKVVAIEKDMAVIDVGLKTEGRVPLREFAGPGRDNEIKVGDTVEVFLDRIENALGEAVLSRDKARREESWGKLEKAFQNNEKVFGVIFNQVKGGFTVDLDGAVAFLPRSQVDIRPIRDVAPLMNNSQPFQILKMDRRRGNIVVSRRTVLEETRAEQRQELVQNLEEGQVIDGVVKNITDYGAFVDLGGIDGLLHVTDIAWRRVNHPTEVLTIGQTVKVKIIKINHETHRISLGMKQLLDDPWQGIEAKYPLNARFTGRVTNITDYGAFVELEPGIEGLIHVSEMSWTKKNMHPGKIVSTSQEVEVQVLEVDSVKRRISLGLKQTMRNPWEVFVEKHPVGSTVEGEVKNKTEFGLFLGLDGDVDGMVHLSDLDWKLPGEQVIDNFKKGDMVKAVVLDVDVEKERISLGVKQLEGDPFAEPGDVKKGAVVTCEVLDVKESGIDVQIVGTDFNTFIKRSELARDRNDQRSDRFAVGEKVDARVIQFDKKARKVQVSIKALEVAEEKEAIAQYGSSDSGATLGDILGTALKQRDKLEHHHHHH | soluble
ESIQRPTPINQVFPDPGLANAVKQNLGKQSVTDLVSQKELSGVQNFNGDNSNIQSLAGMQFFTNLKELHLSHNQISDLSPLKDLTKLEELSVNRNRLKNLNGIPSACLSRLFLDNNELRDTDSLIHLKNLEILSIRNNKLKSIVMLGFLSKLEVLDLHGNEITNTGGLTRLKKVNWIDLTGQKCVNEPVKYQPELYITNTVKDPDGRWISPYYISNGGSYVDGCVLWELPVYTDEVSYKFSEYINVGETEAIFDGTVTQPIKN | soluble
MKFRQKHEDFIVNEILEYELNDYGNYFLYKLQKNGIENLKAISYLSKNFEVPTKEIGYCGLKDRHAITTQYVSIPKEYGKLSLDEDNLKLEYVGTIEKPLKIGRLYGNRFEIIARAVDKDEFLKIADNIRNLSSGAPNYYDDQRFGSVFNGKFIAKEILKGNYEEVVKILLTSYTKSEKKQLKDLKRFIAKNWGNWDECLEYIDKKQIRSKMFRNMVKSLTYENDFKKAFKYVDNRLKELFISAYQSYLWNECLKEFLKEVIPKENRIYVDYSCGTFLFYENIEEELFDKLKEMDFPTIVSDVEYTDPEKRIIKAILKKERIKISDFEKLDFGKLKYTKRPIISIPEDVNTGKFKSDELNSKKYKIDLEFSLKKGSYATIILKRVFNILLEHHHHHH | soluble
MSLQVKHLLLIAILALTAACSSNKETVDENLSESQLYQQAQDDLNNKSYNSAVTKLKALESRYPFGRYAEQAQLELIYANYKNMEPEAARAAAERFIRLHPQHPNVDYAYYLKGLSSFDQDRGLLARFLPLDMTKRDPGAARDSFNEFAQLTSRFPNSRYAPDAKARMVYLRNLLAAYEVHVGHYYLKRQAYVAAANRGRYVVENFQETPAVGDGLAIMVEAYRRLGLDDLASTSLETLKLNYPDNASLKDGEFVARESEADTRSWLAKATLGLIEGGEPPPHMETQAAKDVIKQYEDAEREIPAELKPENQDHSADDEKPESDDDEDSGRSWWSYMTFGLFDEGGSHHHHHH | soluble
MAKNDKINFSTPSGFPEFLPSEKRLELYLLDTIRRVYESYGFTPIETPAVERLEVLQAKGNQGDNIIYGLEPILPPNRQAEKDKSGDTGSEARALKFDQTVPLAAYIARHLNDLTFPFARYQMDVVFRGERAKDGRFRQFRQCDIDVVGREKLSLLYDAQMPAIITEIFEAVNIGDFVIRINNRKVLTGFFQSLNISETQIKSCISIIDNLEKIGEAKVKLELEKEGINPEQTQKIIDFVKIDGSVDDVLDKLKHLSQTLPESEQFNLGVSELETVITGVRNLGVPDKRFCIDLAIARGLNYYTGTVYETTLIGHEALGSICSGGRYEELVGTFIGEKMPGVGISIGLTRLISRLLKAGILNTLPPTPAQVVVVNMQDELMPTYLKVSQQLRQAGLNVITNFEKRQLGKQFQAADKQGIRFCVIIGADEAAAQKSSLKDLQSGEQVEVALADLAEEIKRRLT | soluble
MAVVGYISYDNRDTFMNAKDVLSTEIEAVNGKADTKESKECEDTQASDEVALETDSTEEILNAGETVLTSASTESEECVAQVKLGREQVRSKNKEALQKIIDDAGVSEAEKKSAVDAMVKLTENAQMEEDAQMMLEAKGFKNAVVSLSDECCDVIVGKDDVTDEKRAQIEDIIKRKTNIGASNIVISTMD | not soluble
MSLKVVKFGGSSLASASQLEKVLNIVKSDSERRFVVVSAPGKRNAEDTKVTDALIKYYRDYVAGNDISKNQSWIIDRYAAMVSELGLKPAVLEKISKSIHALATLPIEENEFLYDTFLAAGENNNAKLIAAYFNQNGIDARYMHPREAGIVVTSEPGHARIIPSSYDKIEELTNTNEVLVIPGFFGVTKENQICTFSRGGSDITGSIIAAGVKADLYENFTDVDGIFAAHPGIIHQPHSIPELTYREMRELAYAGFSVLHDEALLPAYRGKIPLVIKNTNNPDHPGTRIVLKHSNDEFPVVGIAGDSGFVSINMSKYLMNREVGFGRKVLQILEELNIGWEHMPTGIDDLSIILRSRQLTPIKEEEILRQLVQKAKVDHAEIEHDLSIIMIVGEKMKSHIGVTATATRALSENKINIQMMSQGSSEVSIMFVVNKDQEKAAIKALYNAFFGESKEDEGHHHHHH | soluble
